Assay results: article PMC12261083, “Two DNA-binding One Zinc Finger transcription factors, MdCDOF3 and MdDOF3.6, accelerate leaf senescence by activating cytokinin oxidase MdCKX7 in response to sorbitol signaling in apple”

T1: MdDOF3.6 (Malus domestica, UniProt A0A498JFY8 1-358)
T1 sequence: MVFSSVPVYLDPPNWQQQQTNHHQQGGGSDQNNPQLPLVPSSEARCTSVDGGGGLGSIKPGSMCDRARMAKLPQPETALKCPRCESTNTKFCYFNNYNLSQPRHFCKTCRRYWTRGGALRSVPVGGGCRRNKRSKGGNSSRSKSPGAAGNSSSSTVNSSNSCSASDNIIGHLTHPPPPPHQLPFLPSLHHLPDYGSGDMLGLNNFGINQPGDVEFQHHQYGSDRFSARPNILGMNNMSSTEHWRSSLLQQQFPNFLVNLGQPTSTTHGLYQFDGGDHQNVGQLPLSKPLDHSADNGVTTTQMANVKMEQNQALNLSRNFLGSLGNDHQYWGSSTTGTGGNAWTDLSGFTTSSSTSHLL

B1: MdCKX7 promoter P4 probe (dsDNA)
DNA 1: GATACTATTCACTTTACCCTTTATTCTGTCCTTATC
DNA 2: GATAAGGACAGAATAAAGGGTAAAGTGAATAGTATC
B2: MdCKX7 promoter P4 mutant probe (dsDNA)
DNA 1: GATACTAAAAAAAAAAAAAAAAAAAAAATCCTTATC
DNA 2: GATAAGGATTTTTTTTTTTTTTTTTTTTTTAGTATC

Tests used:
MdDOF3.6 [1] = target: T1, MdDOF3.6; experiment: EMSA; not stated (EMSA according to cited protocol; biotin-labelled probes, Beyotime kit); conditions: protein: recombinant; tags: His; label: biotin
MdDOF3.6 [2] = target: T1, MdDOF3.6; experiment: EMSA; mutated probe; shift disappeared; not stated (EMSA according to cited protocol; biotin-labelled probes, Beyotime kit); conditions: protein: recombinant; tags: His

Binder | binding result (MdDOF3.6 [1]) | binding result (MdDOF3.6 [2])
B1 | binds | –
B2 | – | no binding
